Laboratory results taken from publication PMC6366758.

Legend:
[1] = molecular target: RSV F glycoprotein nanoparticles (human respiratory syncytial virus A2 (RSV/A2))
[2] = molecular target: Post-fusion F (human respiratory syncytial virus A2 (RSV/A2)); experiment: SPR
[3] = molecular target: RSV F710 post-fusion (human respiratory syncytial virus A2 (RSV/A2) | bacteriophage T4); experiment: cryo-EM structure; single particle cryo-EM of the purified RSV F710-R4.C6 Fab complex on graphene oxide grids; C3 symmetry; overall 3.9 A

With Motavizumab (antibody) the RSV/A Long neutralization (IC50), micro-neutralization assay on HEp-2 cells [1] was 0.0208 µg/mL.
For Palivizumab, the Kd [2] was 340 pM and the koff [2] was 5.79e-05 s⁻¹.
RSV F710 post-fusion showed a stoichiometry N [3] of 3.
